According to paper PMC3822574 (Analytical biochemistry, 2013):

Biological target: T1, LCAT (Homo sapiens, UniProt P04180)
T1 sequence (P04180 25-440): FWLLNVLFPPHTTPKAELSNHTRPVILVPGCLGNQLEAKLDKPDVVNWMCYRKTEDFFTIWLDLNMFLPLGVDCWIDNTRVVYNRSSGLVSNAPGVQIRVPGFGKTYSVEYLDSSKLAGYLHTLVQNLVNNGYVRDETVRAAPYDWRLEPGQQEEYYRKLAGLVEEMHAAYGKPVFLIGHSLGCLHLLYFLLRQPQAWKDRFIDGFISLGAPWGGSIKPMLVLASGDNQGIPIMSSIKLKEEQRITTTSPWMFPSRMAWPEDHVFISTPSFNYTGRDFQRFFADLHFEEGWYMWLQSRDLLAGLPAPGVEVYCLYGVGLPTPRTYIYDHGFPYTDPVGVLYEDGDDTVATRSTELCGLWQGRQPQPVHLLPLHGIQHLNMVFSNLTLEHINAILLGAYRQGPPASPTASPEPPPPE
Assay: Assay of LCAT activity in plasma with HDL-mimetic substrate
Format: biochemical
Details: rhLCAT in buffer; 2 μL with 100 μL HMS (100 μM DHE), 2 hours

Slope of activity versus rhLCAT concentration: 5 nmol/µg/h
Substance: rhLCAT: Recombinant human LCAT purified from the medium of a stably transfected HEK293F cell clone
